Our source for the stoichiometry N values is paper PMC7885266.

This experiment concerns the target 3TBP-CTPR6-foldon. Put plainly: co-sedimentation; co-precipitation assay: 10 μM hTNKS2 ARC1–3 mixed with an equal volume of CTPR protein (fixed or increasing concentrations) in 50 mM Tris-HCl, 150 mM NaCl, 0.5 mM TCEP, pH 7.3; 1 h at room temperature, 20 000g 30 min; supernatant and pellet on SDS-PAGE, band densities give the stoichiometry in the pellet.

B1: Tankyrase-2 Ankyrin Repeat Clusters 1-3 (residues 2-485) (domain or fragment)
chain: SGRRCAGGGAACASAAAEAVEPAARELFEACRNGDVERVKRLVTPEKVNSRDTAGRKSTPLHFAAGFGRKDVVEYLLQNGANVQARDDGGLIPLHNACSFGHAEVVNLLLRHGADPNARDNWNYTPLHEAAIKGKIDVCIVLLQHGAEPTIRNTDGRTALDLADPSAKAVLTGEYKKDELLESARSGNEEKMMALLTPLNVNCHASDGRKSTPLHLAAGYNRVKIVQLLLQHGADVHAKDKGDLVPLHNACSYGHYEVTELLVKHGACVNAMDLWQFTPLHEAASKNRVEVCSLLLSYGADPTLLNCHNKSAIDLAPTPQLKERLAYEFKGHSLLQAAREADVTRIKKHLSLEMVNFKHPQTHETALHCAAASPYPKRKQICELLLRKGANINEKTKEFLTPLHVASEKAHNDVVEVVVKHEAKVNALDNLGQTSLHRAAYCGHLQTCRLLLSYGCDPNIISLQGFTALQMGNENVQQLLQEGI
For B1, the stoichiometry N – broadly, a count of units in the complex or per binding partner – was found to be 2.
